Laboratory results published in patent publication US20220064274A1 (SHANGHAI YILE BIOTECHNOLOGY, published 2022).
No end group written: not given here.

T1: VP peptide (human, also: biotinylated, position not given here)
T1 construct: Synthetic; also called Biotinylated VP peptide
T1 peptide: VMLSSQVPLEPP

T2: LL peptide (human, also: biotinylated, position not given here)
T2 construct: Synthetic; also called Biotinylated LL peptide
T2 peptide: LLFLLEEYKNYL

T3: DH Peptide (human, also: biotinylated, position not given here)
T3 construct: Synthetic; also called polypeptide DH; Biotinylated DH peptide
T3 peptide: DAANMSMRVRRH

T4: GST-huBDNFpro4
T4 construct: Printed on the sheet without the E ('GST-huBDNFpro4'); also called E4; GST-human proBDNF-E4 peptide
T4 peptide: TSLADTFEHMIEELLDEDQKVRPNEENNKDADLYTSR

T5: GST-human proBDNF-E2 peptide (human, UniProt P23560 76-129)
T5 construct: not shown: GST (glutathione S-transferase) fusion partner
T5 sequence: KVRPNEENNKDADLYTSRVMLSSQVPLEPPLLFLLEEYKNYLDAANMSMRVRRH

T6: GST-human proBDNF-E5 peptide (human)
T6 construct: not shown: GST (glutathione S-transferase) fusion partner
T6 chain: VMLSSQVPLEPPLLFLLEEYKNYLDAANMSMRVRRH

T7: human proBDNF precursor protein (human, UniProt P23560 19-247)
T7 construct: also called human proBDNF precursor recombinant protein
T7 sequence (looked up): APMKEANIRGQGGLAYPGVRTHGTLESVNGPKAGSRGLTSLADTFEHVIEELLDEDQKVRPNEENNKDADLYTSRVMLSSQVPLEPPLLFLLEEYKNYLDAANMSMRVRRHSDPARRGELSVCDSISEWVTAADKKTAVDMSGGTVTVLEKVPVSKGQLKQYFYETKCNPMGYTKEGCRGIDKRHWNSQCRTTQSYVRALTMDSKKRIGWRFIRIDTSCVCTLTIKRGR

B1: 1D3 Monoclonal antibody (antibody, V domains shown)
VH: QVQLVESGGGLIQPGGSMRLSCAASGFSLSGYDMHWVRQIAGKGLEWVAGLGMEGDSYYSASVKGRFTISRQDAKNSLYLEMKDLGGGDTAVYYCLRDVHGFDVWGQGTTVTVSS
VL: DVVMTQSPLSLPVTPGEPASISCRSSQSLLYSNGYTYLDWYLQRPGQSPQLLIYMGSNRASGVPDRFSGSGSGTDFTLKISRVEAEDVGVYYCMQALQTPLTFGGGTKLEIKR
notes: also called recombinant monoclonal antibody 1D3; fully human monoclonal antibody 1D3
B2: 2H8 Monoclonal antibody (antibody, V domains shown)
VH: EVQLVETGGGLVQPGGSLRLSCAASGFTFSSYGMHWVRQAPGKGLEWVSVISGSGDSTYYAESVKGRFTISRDNARNTVYLQMNSLRAEDTAVYYCASGILTGYVFDYWGKGTMVTVSS
VL: DVVMTQSPLSLPVTLGQPASISCRSSQSLVSNDGNTYLNWFQQRPGQPPRRLIYMVSKWDSGVPDRFSGSGSGTDFTLRISRVEAEDVGVYYCMQSTHWPPTFGGGTKLEIKR
notes: also called recombinant monoclonal antibody 2H8

Columns and labels:
VP peptide = target: T1, VP peptide; assay: ELISA, biotinylated peptide
Source text: (§1) The E5 peptide was further divided into three equal peptide segments, each comprising 12 amino acids, namely VP peptide ([…], SEQ ID NO: 33), LL peptide ([…], SEQ ID NO: 34), DH Peptide ([…], SEQ ID NO: 35). Biotinylated VP peptide, LL peptide and DH peptide were synthesized in vitro by GL Biochemical (Shanghai) Ltd. and the binding of antibodies was detected by ELISA.

LL peptide = target: T2, LL peptide; assay: ELISA, biotinylated peptide
Source text: as §1

DH Peptide = target: T3, DH Peptide; assay: ELISA, biotinylated peptide
Source text: as §1

GST-huBDNFpro4 = target: T4, GST-huBDNFpro4; assay: ELISA, GST fusion protein coated, absorbance at 450 nm
Source text: (§2) The five peptides were fused with GST and expressed, and then purified. The binding of antibodies 1D3 and 2H8 was detected by ELISA.

[1] = target: T5, GST-human proBDNF-E2 peptide; assay: ELISA on GST fusion proteins
Source text: as §2

[2] = target: T6, GST-human proBDNF-E5 peptide; assay: ELISA on GST fusion proteins
Source text: as §2

[3] = target: T7, human proBDNF precursor protein; assay: SPR, Biacore T200, capture method, human proBDNF precursor protein at 0.25-8 nM
Protocol: The affinity and kinetic parameters of the 1D3 and 2H8 monoclonal antibodies were measured by the capture method using the Biacore T200 system (purchased from GE). The operation is referred to the instruction. The adopted concentrations of human proBDNF precursor protein were 0.25nM, 0.5nM, 1nM, 2nM, 4nM and 8nM, respectively. The Biacore T200 evaluation software was used to evaluate the obtained action curve and to calculate the KD value of affinity . FIG. 1A and FIG. 1B respectively show the kinetic curves of monoclonal antibodies 1D3 and 2H8 in the Biacore affinity determination experiment.

Binder	binding result (VP peptide)	binding result (LL peptide)	binding result (DH Peptide)	binding result (GST-huBDNFpro4)	binding result [1]	binding result [2]	Kd [3]	koff [3]	kon [3]
B1	no binding	no binding	binds	no binding	binds	binds	–	–	–
B2	no binding	no binding	binds	no binding	–	binds	1.91 nM	0.00594 s⁻¹	3.1e+06 M⁻¹ s⁻¹
